B1: Ab445 (antibody, V domains shown)
VH: EVQLVESGGGVVQPGTSPRLSCAASGFTFSNSGMHWVRQAPGKGLEWVAVIWYDGSKKYYVDSVKGRFTISRDNSKNTLYLQMNSLRAEDTAVYYCARDGTVAVRGVMNPFFDYWGQGTLVTVSS
VL: DIQLTQSPSSLSASVGDRVTITCQASQDISNYLNWYQQIPGKAPKLLIYDASNLETGVPSRFSGSGSGTDFTFTISSLQPEDIATYYCQQYDNLPYTFGQGTKLEIK
B2: Ab308 (antibody, V domains shown)
VH: EVQLVQSGAEVKKPGSSVKVSCKASGGTFSSYAINWVRQAPGQGLEWMGRIIPMFGIANYAQKFQGRVTITANKSTSTAYMDLSSLRSEDTAVYYCARSQYYYDSSGYYFDYWGQGTLVTVSS
VL: not shown
B3: Ab326 (antibody, V domains shown)
VH: EVQLVESGGGVVQPGRSLRLSCAASGFTFSHYPMHWVRQAPGRGLEWVAVISYDGSNQHYVDSVKGRFTISRDNSKNTLYLQMNSLRAEDTAVYFCASLITMIRGVPDYWGQGTLVTVSS
VL: DIQMTQSPSSLSASVGDRVTITCRASQSISNYLNWYQQKPGKAPNLLIFAASSLQSGVPSRFSGSGSGTEFTLTISSLQPEDFAAYYCLQTYSTPRTFGQGTRLEIK
B4: Ab188 (antibody, V domains shown)
VH: EVQLVESGGGLVQPGGSLRLSCAASGFTFINYKMNWVRQAPGKGLEWVSYISSGSDAIYYADSVKGRFTISRDNAKNSLYLQMNSLRDEDTALYYCARGGGYNYGECMDVWGQGTTVTVSS
VL: not shown
B5: Ab336 (antibody, V domains shown)
VH: QVQLQQSGPGLVKPSETLSLTCTVSGGSISSYYWTWIRQPPGKGLEWIAYISYSGSTNYNPSLRSRVTISVDTSKNQFSLKLSSVTAADTAVYYCARDYYYDNSGYPDSYYGMDVWGQGTTVTVSS
VL: DIQLTQSPSTLSASVGDRVTITCRASQRISSWLAWYQQKPGKAPKLLIYKASTLQSGVPSRFSGSGSGTEFTLTISSLQPDDFATYYCQQYNSFSWTFGQGTKVEIK
B6: Ab354 (antibody, V domains shown)
VH: QVQLVQSGAEVKKPGASVTVSCKASGFLFTGYYMHWVRQAPGQGLEWMGWINPNSGASNYTRKFQGRVTMTRDTSISATYMKLSRLTSDDTAVYYCARDLAFSMVRGALDYWGQGTLVTVSS
VL: QLVLTQPPSASGSPGQSVTISCTGTSSDVGGYNYVSWYQHHPGKAPKLMIYEVSKRPSGVPDRFSGSKSGNTASLTVSGLQAEDEADYYCNSYAGNNNWVFGTGTKVTVL
B7: Ab496 (antibody, V domains shown)
VH: EVQLVQSGPEVKKPGTSVKVSCKASGFIFTNSAVQWVRQARGQRLEWIGWIVVGSGNPNYAQKFQERVTITRDRSTSTAYMELSSLTSEDTAVYYCAAFPYYYDNSGSGPWGQGTLVTVSS
VL: DIQLTQSPSSLSASVGDRVTITCQASQDIRNNLNWYQQIPGKAPKLLIYDASNLETGVPSRFSGSASGTDFTFTISSLQPEDVATYYCQQYANLPPFTFGPGTKVDIK
B8: Ab287 (antibody, V domains shown)
VH: QVQLVQSGAEVKKPGSSVKVSCKASGDTFSSYAISWVRQAPGQGLEWMGRIILIFGVANYAQKFQGRVTITADKSTSTAYMELSSLRSEDTAVYYCARGGFYYDSSGYHLDYWGQGTLVTVSS
VL: EIVLTQSPGTLSLSPGERATLSCRPSQSVSSSYLAWYQQRPGQAPRLLIYGASSRATGIPDRFSGSGSGTDFTLTISRLEPEDFAVYYCHQYGSSPRTFGQGTKVEIK
B9: Ab159 (antibody, V domains shown)
VH: QVQLVESGGGLVKPGGSLRLSCAASGFTFNNAWMSWVRQAPGKGLEWVGRIKSKTDGGTTDYAAPVKGRFTFSRDDSKNTLYLQMSSLKTEDTALYYCTTADYDILTGTPASPYWGQGTLVTVSS
VL: DIQMTQSPSSLSASVGDRVTITCRASQSITNYLNWYQQKPGKAPKFLIYAASSLQGGVPSRFRGSGSGTDFTLTISSLQPEDFATYYCQQTYSTLWTFGQGTKVEIK

What follows are binders tested against T1, full-length spike protein of SARS-CoV-2 (Wuhan strain) (SARS-CoV-2 (Wuhan strain), UniProt P0DTC2 14-1273) (assay: ACE2 competition, 293T cells, antibody 4 µg/mL).
T1 construct: whole, on cells; Expressed in 293T cells

Binder	ACE2 binding (no antibody = 100)
B1	0.4
B2	4.1
B3	0.2
B4	2.1
B5	1
B6	0.3
B7	1.8
B8	0.5

These binders were tested against T2, RBD derived from SARS-CoV-2 (Wuhan strain) (SARS-CoV-2 (Wuhan strain), UniProt P0DTC2 319-541) (assay: RBD beads, antibody 0.25 µg/mL, then labelled ACE2, flow cytometry).
T2 construct: domain: RBD

Binder	fluorescence of ACE2 protein
B1	2200
B2	1390
B3	516
B9	486
B4	1570
B5	1110
B6	409
B7	2580
B8	689

What follows are binders tested against T1, full-length spike protein of SARS-CoV-2 … (assay: ACE2 competition, spike on 293T cells, antibody 4 µg/mL).

Binder	binding amount (%) of ACE2 protein
B1	0.4%
B2	3.5%
B3	0.2%
B9	0.5%
B4	1.1%
B5	5.3%
B6	0.3%
B7	1.8%
B8	1.5%

These binders were tested against T2, RBD derived from SARS-CoV-2 (Wuhan …) (assay: BLI (Octet), RBD of the Wuhan strain).

Binder	Kd
B1	0.0593 nM
B2	6.62 nM
B3	0.0514 nM
B9	1.24 nM
B5	2.35 nM
B6	0.0726 nM

Each binder was assayed against spike protein of SARS-CoV-2 (Wuhan strain) on pseudovirus (SARS-CoV-2 (Wuhan strain), UniProt P0DTC2 14-1254) (assay: cell-based or functional assay).

Binder	IC50 of pseudovirus infection (luciferase)
B3	0.031 µg/mL
B9	0.00852 µg/mL
B4	0.119 µg/mL
B6	0.0559 µg/mL
B7	0.00362 µg/mL

Each binder was assayed against T2, RBD derived from SARS-CoV-2 (Wuhan …) (assay: RBD beads, antibody 1 µg/mL, then labelled ACE2, flow cytometry).

Binder	fluorescence of ACE2 protein
B1	326
B2	432
B3	39.9
B9	114
B5	402
B6	64.8
B7	129
B8	105

These binders were tested against T2, RBD derived from SARS-CoV-2 (Wuhan …) (assay: RBD beads, antibody 4 µg/mL, then labelled ACE2, flow cytometry).

Binder	fluorescence of ACE2 protein
B1	142
B2	59
B3	38.4
B9	78.3
B4	148
B5	106
B6	42.9
B7	41.7
B8	32.6

Reference: US20230348573A1 (KEIO UNIVERSITY, published 2023)
